Holding throughout (assay): SPR
Experiment [1] concerns the target human tau protein isoform 2N4R (human, UniProt P10636-8 1-441).
Experiment [2] has as its target human tau protein isoform 2N3R (human, UniProt P10636-5 1-410).
The target of experiment [3] is mis-disordered tau 151-391/3R (human, UniProt P10636-5 151-391).
Experiment [4] deals with mis-disordered tau protein 151-391/4R (human, UniProt P10636-8 151-391).
Sequence of mis-disordered tau protein 151-391/4R (P10636 468-708): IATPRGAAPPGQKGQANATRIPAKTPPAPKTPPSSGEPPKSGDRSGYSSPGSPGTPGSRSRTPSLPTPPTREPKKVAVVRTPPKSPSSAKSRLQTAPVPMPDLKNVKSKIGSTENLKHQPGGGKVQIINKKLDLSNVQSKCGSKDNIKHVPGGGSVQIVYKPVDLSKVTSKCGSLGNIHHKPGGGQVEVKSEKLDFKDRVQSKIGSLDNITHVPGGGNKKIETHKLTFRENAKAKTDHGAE

Sequence of human tau protein isoform 2N3R (P10636 other isoform, or with tags, fused parts or gaps): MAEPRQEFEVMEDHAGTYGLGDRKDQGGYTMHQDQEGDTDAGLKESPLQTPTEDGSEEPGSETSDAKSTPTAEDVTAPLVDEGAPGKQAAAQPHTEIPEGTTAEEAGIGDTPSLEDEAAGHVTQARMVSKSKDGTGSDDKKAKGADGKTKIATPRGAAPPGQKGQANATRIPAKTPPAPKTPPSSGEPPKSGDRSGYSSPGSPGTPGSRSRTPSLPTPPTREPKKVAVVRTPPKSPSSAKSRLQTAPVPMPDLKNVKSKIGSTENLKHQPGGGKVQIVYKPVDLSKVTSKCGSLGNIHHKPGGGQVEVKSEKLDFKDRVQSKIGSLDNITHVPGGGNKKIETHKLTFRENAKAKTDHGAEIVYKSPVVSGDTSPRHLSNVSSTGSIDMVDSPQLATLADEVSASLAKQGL
Sequence of human tau protein isoform 2N4R (P10636 other isoform, or with tags, fused parts or gaps): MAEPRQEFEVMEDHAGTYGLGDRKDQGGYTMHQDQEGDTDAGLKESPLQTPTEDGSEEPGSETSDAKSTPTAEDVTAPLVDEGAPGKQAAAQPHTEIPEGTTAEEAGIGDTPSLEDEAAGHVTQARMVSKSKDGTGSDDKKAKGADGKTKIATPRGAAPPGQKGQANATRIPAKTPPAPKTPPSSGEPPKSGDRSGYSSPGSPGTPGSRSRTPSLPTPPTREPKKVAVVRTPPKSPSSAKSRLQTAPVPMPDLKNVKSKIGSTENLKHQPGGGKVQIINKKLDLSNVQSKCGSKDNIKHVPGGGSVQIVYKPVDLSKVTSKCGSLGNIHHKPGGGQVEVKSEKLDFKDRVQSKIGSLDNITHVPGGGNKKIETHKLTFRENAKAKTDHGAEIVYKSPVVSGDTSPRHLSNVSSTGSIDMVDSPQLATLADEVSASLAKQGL
Sequence of mis-disordered tau 151-391/3R (P10636 other isoform, or with tags, fused parts or gaps): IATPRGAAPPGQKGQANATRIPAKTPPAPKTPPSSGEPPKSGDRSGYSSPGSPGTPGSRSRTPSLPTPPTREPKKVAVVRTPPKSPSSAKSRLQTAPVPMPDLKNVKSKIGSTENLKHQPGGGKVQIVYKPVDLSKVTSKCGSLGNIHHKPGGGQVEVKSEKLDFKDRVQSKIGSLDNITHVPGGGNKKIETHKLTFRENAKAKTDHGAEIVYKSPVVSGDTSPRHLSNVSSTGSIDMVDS

B1: monoclonal antibody DC8E8 (antibody, V domains shown)
VH: QVQLQQSGPELVKPGTSVKMPCKASGYIFTDYVISWVKQRTGQGLEWIGEIFPRSGSTYYNEKFKGKATLTADKSSNTAYMQLSSVTSEDSAVYFCARDYYGTSFAMDYWGQGTSVTVSS
VL: DIVMSQSPSSLAVSAGEKVTMSCKSSQSLLNSRTRKNYLAWYQQKPGQSPKLLIYWASTRESGVPDRFTGSGSGTDFTLTISSVQAEDLAVYYCKQSFYLRTFGGGTKLDIK
For the molecule B1, the Ka was determined as 1.1e+07 M⁻¹ in experiment [1], 80000 M⁻¹ in experiment [2], 1.9e+06 M⁻¹ in experiment [3] and 7.3e+07 M⁻¹ in experiment [4].

Values taken from article PMC4255369 (2014).
